According to patent US20220119448A1:

What was measured:
[1] = biological target: GLP-2R (GLP-2 receptor) on GLP-2R/Luc-CHO cells; test: cell-based or functional assay
GHR on Ba/f3-GHR cells = test: cell-based or functional assay

“GLP-2 (Hangzhou Chinese Peptide Biochemical Co., Ltd., Cat. No: GLUC-002A)” was tested. Which in vitro cytological activity, EC50 (luciferase reporter, GLP-2R/Luc-CHO cells) [1] did it give?
The in vitro cytological activity, EC50 (luciferase reporter, GLP-2R/Luc-CHO cells) was 5.2 nM.

“hGH (human auxin) (from UniProt P01241 27-217) (ligand)” was tested. Which In vitro cytological activity, EC50 (Ba/f3-GHR cells, MTT) (GHR on Ba/f3-GHR cells) did it give?
The In vitro cytological activity, EC50 (Ba/f3-GHR cells, MTT) was 0.54 nM.
